Test results: patent US20200255543A1 (ROCKEFELLER UNIVERSITY, published 2020)

Assays:
[1] = molecular target: T1, recombinant mouse MERTK (mouse, UniProt Q60805 23-496, limits assumed); assay: biolayer interferometry, M19 loaded on AMQ sensor at 1 ug/mL, msMer in solution at 5 to 0.0781 nM, global 1:1 fit
T1 construct: Analyte in solution in biolayer interferometry; also called msMer; murine MERTK
T1 sequence (looked up): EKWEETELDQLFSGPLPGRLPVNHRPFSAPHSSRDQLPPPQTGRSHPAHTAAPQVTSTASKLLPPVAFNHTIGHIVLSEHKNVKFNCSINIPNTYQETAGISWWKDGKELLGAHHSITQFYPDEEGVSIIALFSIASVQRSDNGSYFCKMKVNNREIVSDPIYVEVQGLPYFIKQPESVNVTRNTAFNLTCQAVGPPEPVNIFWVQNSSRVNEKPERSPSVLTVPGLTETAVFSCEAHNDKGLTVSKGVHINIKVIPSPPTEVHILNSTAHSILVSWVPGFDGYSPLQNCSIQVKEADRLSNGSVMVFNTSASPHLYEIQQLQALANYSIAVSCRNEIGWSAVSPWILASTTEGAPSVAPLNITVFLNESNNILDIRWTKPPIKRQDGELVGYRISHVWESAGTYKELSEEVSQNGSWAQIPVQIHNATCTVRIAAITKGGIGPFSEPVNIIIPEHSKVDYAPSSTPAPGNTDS
Protocol: (§1) FIG. 8: M19 binds to murine MERTK with high affinity. A diagram showing antibody binding kinetics for M19 (Mer-M19) against murine MERTK (msMer) using biolayer interferometry. Purified M19 was loaded on an AMQ sensor at a concentration of 1 microgram/mL to test binding against analytes in solution. All analytes were prepared at 5 nM with a 2-fold dilution series for a total of 7 concentrations. Kinetic fits were calculated using a 1:1 model, with Local fits for each concentration as well as an overall Global fit.
(§2) To characterize the binding affinity of M19 antibody against recombinant human and mouse MERTK, biomolecular interaction analysis was performed using biolayer interferometry (FIG. 7 and FIG. 8). Binding was observed between M19 and both mouse and human MERTK.

[2] = molecular target: T1, recombinant mouse MERTK; assay: biolayer interferometry, M19 loaded on AMQ sensor at 1 ug/mL, msMer in solution at 1.25 nM, local 1:1 fit
Protocol: as §1, §2

[3] = molecular target: T2, recombinant human MERTK (human, UniProt Q12866 21-505, limits assumed); assay: biolayer interferometry, M19 loaded on AMQ sensor at 1 ug/mL, hMer in solution at 5 to 0.0781 nM, global 1:1 fit
T2 construct: Analyte in solution in biolayer interferometry; also called hMer
T2 sequence: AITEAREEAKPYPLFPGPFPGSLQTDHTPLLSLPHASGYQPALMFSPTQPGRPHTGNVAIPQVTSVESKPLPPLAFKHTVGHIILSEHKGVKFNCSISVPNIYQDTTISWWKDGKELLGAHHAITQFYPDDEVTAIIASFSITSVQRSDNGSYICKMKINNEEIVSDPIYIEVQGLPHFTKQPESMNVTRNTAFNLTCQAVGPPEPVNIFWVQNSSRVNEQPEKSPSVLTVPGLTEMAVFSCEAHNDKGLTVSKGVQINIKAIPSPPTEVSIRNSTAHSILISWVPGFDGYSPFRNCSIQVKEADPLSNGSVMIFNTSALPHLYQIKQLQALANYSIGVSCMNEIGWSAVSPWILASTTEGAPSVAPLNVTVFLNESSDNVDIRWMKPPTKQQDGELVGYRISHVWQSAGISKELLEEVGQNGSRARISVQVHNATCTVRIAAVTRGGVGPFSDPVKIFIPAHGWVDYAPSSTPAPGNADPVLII
Protocol: as §1, with “7:” for “8:”, “human” for “murine”, “(hMer)” for “(msMer)”, “global” for “Global”
as §2

[4] = molecular target: T1, recombinant mouse MERTK; assay: biolayer interferometry, M19 loaded on AMQ sensor at 1 ug/mL, msMer in solution at 0.0781 nM, local 1:1 fit
Protocol: as §1, §2

[5] = molecular target: T2, recombinant human MERTK; assay: biolayer interferometry, global fit; human MERTK
Protocol: as §1, with “7:” for “8:”, “human” for “murine”, “(hMer)” for “(msMer)”, “global” for “Global”

[6] = molecular target: T2, recombinant human MERTK; assay: biolayer interferometry, M19 loaded on AMQ sensor at 1 ug/mL, hMer in solution at 5 nM, local 1:1 fit
Protocol: as §1, with “7:” for “8:”, “human” for “murine”, “(hMer)” for “(msMer)”, “global” for “Global”
as §2

[7] = molecular target: T2, recombinant human MERTK; assay: biolayer interferometry, M19 loaded on AMQ sensor, hMer analyte from 5 nM in 2-fold dilutions, 1:1 model, global fit
Protocol: as §1, with “7:” for “8:”, “human” for “murine”, “(hMer)” for “(msMer)”, “global” for “Global”

[8] = molecular target: T1, recombinant mouse MERTK; assay: biolayer interferometry, M19 loaded on AMQ sensor at 1 ug/mL, msMer in solution at 0.1563 nM, local 1:1 fit
Protocol: as §1, §2

[9] = molecular target: T1, recombinant mouse MERTK; assay: biolayer interferometry, M19 loaded on AMQ sensor at 1 ug/mL, msMer in solution at 5 nM, local 1:1 fit
Protocol: as §1, §2

[10] = molecular target: T2, recombinant human MERTK; assay: biolayer interferometry, M19 loaded on AMQ sensor at 1 ug/mL, hMer in solution at 0.625 nM, local 1:1 fit
Protocol: as §1, with “7:” for “8:”, “human” for “murine”, “(hMer)” for “(msMer)”, “global” for “Global”
as §2

koff [1]: 0.00144 s⁻¹
kon [1]: 4.71e+06 M⁻¹ s⁻¹
Kd [2]: 0.282 nM
koff [2]: 0.00149 s⁻¹
kon [2]: 5.27e+06 M⁻¹ s⁻¹
koff [3]: 0.001 s⁻¹
kon [3]: 3.08e+06 M⁻¹ s⁻¹
Kd [4]: 0.0472 nM
koff [4]: 0.00108 s⁻¹
kon [4]: 2.29e+07 M⁻¹ s⁻¹
Kd [5]: ~0.3 nM
Kd [6]: 0.246 nM
koff [6]: 0.000951 s⁻¹
kon [6]: 3.86e+06 M⁻¹ s⁻¹
Kd [7]: 0.326 nM
Kd [8]: 0.117 nM
koff [8]: 0.00129 s⁻¹
kon [8]: 1.1e+07 M⁻¹ s⁻¹
Kd [9]: 0.354 nM
koff [9]: 0.00133 s⁻¹
kon [9]: 3.77e+06 M⁻¹ s⁻¹
Kd [10]: 0.155 nM
koff [10]: 0.00079 s⁻¹
kon [10]: 5.11e+06 M⁻¹ s⁻¹
B1: monoclonal antibody M19 (antibody, V domains shown)
VH: EVQLEESGPDLKKPGETVKISCKASNYTFTDYSMHWVKQAPGKGLKWVGWINTDTGEPTYADDFKGRFAFSLETSASTAYLQINNLKNEDTATYFCARWFGAMDYWGQGTSVTVSS
VL: DIVITQSHKFMSTSVGDRVSITCKASQDVTNVVAWYQQKPGQSPKLLIYSASYRYTGVPDRFTGSGSGTDFTFTISSVQAEDLAVYYCQQYYRTPRTFGGGTKLEIKR
notes: Mouse hybridoma monoclonal antibody; Hybridoma supernatant was used in the ELISA screen, purified antibody in biolayer interferometry; also called Mer-M19
